From publication PMC2775144 come the findings set out here.

Experiment [1] has as its target PqsD (Pseudomonas aeruginosa). Description: AUC.
Experiment [2] addresses PqsD (Pseudomonas aeruginosa). Put plainly: SEC-MALS. (In gel filtration, larger molecules generally elute earlier.)

A word on the stoichiometry N: it is the number of molecules, sites or subunits per partner or assembly.

As to PqsD (enzyme), the stoichiometry N in experiment [1] and in experiment [2] was 2 in each case.
